The record followed here is patent US20220298257A1 (ELPIS BIOPHARMACEUTICALS, published 2022).

Usually IC50 stands for the concentration that inhibits the measured activity by half. Lower therefore signals higher potency. The term EC50 denotes the concentration giving half of the maximal effect. A low value points to higher potency in that assay. The term Kd denotes the constant that tells how readily two partners part at equilibrium. A low value points to tighter binding. As usually defined, the koff is a measure of how fast the partners let go of each other. A high value points to fast dissociation. Broadly, the kon is the rate constant with which the complex forms.

Experiment [1] has as its target T1, full-length human CD22 fused with flag and Myc tags at the C-terminus, on HEK293 or K562 cells (human, UniProt P20273 20-847).
T1 construct: whole, on cells; also called CD22/K562; CD22/HEK293; not shown: C-terminal flag and Myc tags of the pCMV6-Entry vector
T1 sequence (looked up): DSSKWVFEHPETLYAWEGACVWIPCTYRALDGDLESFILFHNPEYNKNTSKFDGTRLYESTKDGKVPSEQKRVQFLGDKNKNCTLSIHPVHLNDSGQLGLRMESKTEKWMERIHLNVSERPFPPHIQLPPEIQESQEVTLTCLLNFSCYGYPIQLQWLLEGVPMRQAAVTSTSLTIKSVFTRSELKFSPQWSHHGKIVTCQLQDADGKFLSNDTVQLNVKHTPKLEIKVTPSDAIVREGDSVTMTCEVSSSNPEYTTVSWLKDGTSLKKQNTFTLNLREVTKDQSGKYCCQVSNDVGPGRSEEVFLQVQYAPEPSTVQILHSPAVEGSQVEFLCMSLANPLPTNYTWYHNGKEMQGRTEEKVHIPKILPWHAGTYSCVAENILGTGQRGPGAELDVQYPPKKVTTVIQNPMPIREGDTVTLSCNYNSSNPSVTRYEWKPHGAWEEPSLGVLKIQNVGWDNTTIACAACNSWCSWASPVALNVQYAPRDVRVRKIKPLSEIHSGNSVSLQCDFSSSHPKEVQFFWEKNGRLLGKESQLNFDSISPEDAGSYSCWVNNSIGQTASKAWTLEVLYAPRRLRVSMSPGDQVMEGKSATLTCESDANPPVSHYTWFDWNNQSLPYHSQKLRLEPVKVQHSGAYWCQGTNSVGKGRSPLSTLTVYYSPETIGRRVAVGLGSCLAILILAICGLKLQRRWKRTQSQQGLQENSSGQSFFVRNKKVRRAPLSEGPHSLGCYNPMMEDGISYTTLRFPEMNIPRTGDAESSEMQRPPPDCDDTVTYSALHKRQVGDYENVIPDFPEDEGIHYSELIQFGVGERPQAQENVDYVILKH
The experiment is described as follows: FACS on CD22 K562 cells, competitor 0.175 nM BL22.

Experiment [2] deals with T1, full-length human CD22 fused with flag …. Put plainly: FACS on CD22 K562 cells, scFv alone (M971 binning experiment).
Experiment [3] shares this target. Put plainly: FACS on CD22 K562 cells, scFv alone (BL22 binning experiment).
For experiment [4] the target is unchanged. The experiment is described as follows: FACS on CD22 K562 cells, competitor 1.77 nM M971.
Experiment [5] has the same target. Put plainly: FACS on CD22 K562 cells, competitor 0.77 nM BL22.
For experiment [6] the target is unchanged. The experiment is described as follows: FACS, scFv titrated on CD22-expressing cells, anti-His Alexa 488. (A flow cytometer gives signals particle by particle.)
The target is the same in experiment [7]. The experiment is described as follows: FACS on CD22 K562 cells, competitor 5.13 nM M971.
The target of experiment [8] is T2, human CD22-Fc fusion protein (human, UniProt P20273 20-687, limits assumed).
T2 construct: also called recombinant CD22-Fc fusion protein; not shown: Fc part
T2 sequence (looked up): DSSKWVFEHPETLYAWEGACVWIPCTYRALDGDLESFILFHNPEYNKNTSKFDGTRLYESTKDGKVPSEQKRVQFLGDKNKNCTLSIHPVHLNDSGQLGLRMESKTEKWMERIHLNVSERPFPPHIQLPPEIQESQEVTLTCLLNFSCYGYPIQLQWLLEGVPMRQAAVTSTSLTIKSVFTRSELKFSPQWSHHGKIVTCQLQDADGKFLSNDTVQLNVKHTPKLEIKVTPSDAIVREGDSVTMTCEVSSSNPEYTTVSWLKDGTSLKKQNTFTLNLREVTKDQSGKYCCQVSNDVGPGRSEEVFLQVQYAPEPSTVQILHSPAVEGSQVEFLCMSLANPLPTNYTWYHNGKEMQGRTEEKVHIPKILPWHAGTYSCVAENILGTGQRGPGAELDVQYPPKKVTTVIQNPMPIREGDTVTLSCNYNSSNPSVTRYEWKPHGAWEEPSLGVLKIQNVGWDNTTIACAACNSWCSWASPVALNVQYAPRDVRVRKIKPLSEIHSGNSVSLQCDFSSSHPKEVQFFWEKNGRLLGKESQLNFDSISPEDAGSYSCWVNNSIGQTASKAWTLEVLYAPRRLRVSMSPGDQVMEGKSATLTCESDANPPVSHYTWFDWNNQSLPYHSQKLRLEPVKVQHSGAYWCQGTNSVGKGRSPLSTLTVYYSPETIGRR
Put plainly: SPR Biacore T200; CD22-Fc captured on Protein G chip, scFv as analyte.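 Further: run in 1×HBST buffer, with the response of reference flow cell 1 subtracted from the CD22 capture cell and kinetics fitted in Biacore T200 evaluation software.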 A general note: In SPR one partner is held on a chip, and binding of the other changes the refractive index at the surface.

The target of experiment [9] is T1, full-length human CD22 fused with flag …. Put plainly: FACS, antibody fragment titrated on CD22-expressing cells, anti-His Alexa 488.
For experiment [10] the target is unchanged. Put plainly: cell-based or functional assay.
The target is the same in experiment [11]. The experiment is described as follows: cell-based or functional assay. This is another data set of the same source.
Experiment [12] has the same target. Put plainly: ELISA, IgG format; antigen format not described.

B1: EP160-D02 scFv (scFv)
scFv: QVQLVQSGAEVKKPGASVKVSCKASGYTFTSYGISWVRQAPGQGLEWMGWISAYNGNTNYAQKLQGRVTMTTDTSTSTAYMELRSLRSDDTAVYYCARDPLEPLESDYWGQGTLVTVSSGGGGSGGGGSGGGGSEIVMTQSPATLSVSPGEGVTLSCRASQSVSSNLAWYQQRPGQAPRLLIYGASIKATDVPDRFSGGGSGTDFSLSITNLQSEDFAVYYCQQYHTWPPVTFGGGTKVEIK
notes: VH-VL orientation; made in E. coli, His-tag purified; also called EP160-D2; not shown: C-terminal flag and 6xHIS tag
As for B1, the IC50 is 0.0811 nM in experiment [1], 0.0822 nM in [3] and 0.0898 nM in experiment [5]. Moreover, the 50% effective concentration (EC50) in [2] is 0.125 nM; in [4], 0.0946 nM; in [6], 0.24 nM; in experiment [7] it was 0.144 nM. Besides, the affinity in experiment [8], expressed as Kd, was 0.0194 nM. This molecule also gave an off-rate constant (koff) in [8] of 0.000107 s⁻¹. The kon in experiment [8] was 5.51e+06 M⁻¹ s⁻¹.

B2: EP160-G04 scFv (scFv)
scFv: QVQLVQSGAEVKKPGASVKVSCKASGYTFSSYGITWVRQAPGQGLEWMGWISAYNGNTNYAQKFQGRVTLTTDTSTSIAYMELRSLTSDDTAVYYCATGGQEDYWGQGTLVTVSSGGGGSGGGGSGGGGSEIVMTQSPATLSVSPGERATLSCRASQSVSSNLAWYQQKPGQAPRLLIYDASTRATGIPARFSGSGSGTEFTLTISSLQSEDFAVYYCQQYHNWAPLTFGGGTKVGIK
notes: VH-VL orientation; not shown: C-terminal flag and 6xHIS tag
For the molecule B2, in experiment [6], it took 1.1 nM to reach a half-maximal effect (EC50). Further, in [8], the affinity, expressed as Kd, was 0.322 nM; the koff was 4.03e-05 s⁻¹; the kon turned out to be 125000 M⁻¹ s⁻¹.

B3: EP160-F10 (a single domain antibody) (VHH)
VHH: EVQLVESGGGVVQPGRSLRLSCVASGFTFRNYGMQWVRQTPDKGLEWVAVTAHDGTVQYYVDSVKGRFTISRDNSKDTLYLQMNSLRVADTAVYYCAKEATPRAADHFDYWGQGTLGTVSS
notes: Human VH-only single domain antibody from a human library (not a camelid VHH); not shown: C-terminal flag and 6xHIS tag
For B3, it took 9 nM to reach a half-maximal effect in experiment [9] (EC50).

B4: EP97-B03 (IgG) (antibody, V domains shown)
VH: QLVQSGAEVKKPGASVKVSCKASGYTFSSYGITWVRQAPGQGLEWMGWISAYNGNTNYAQKFQGRVTLTTDTSTSIAYMELRSLTSDDTAVYYCATGGQEDYWGQGTLVTVSS
VL: not shown
Regarding B4, the “T½ (Hour) of internalization, CD22/HEK293 cells, pHrodo secondary” value in experiment [10] was 5.26 Hour. In addition, the “EC50 in ADCC assay (Promega ADCC Bioreporter, CD22/HEK293 target cells)” value in experiment [11] came to 3.71 nM.

B5: M971 IgG antibody (antibody, V domains shown)
VH: QVQLQQSGPGLVKPSQTLSLTCAISGDSVSSNSAAWNWIRQSPSRGLEWLGRTYYRSWYNDYAVSVKSRITINPDTSKNQFSLQLNSVTPEDTAVYYCAREVTGDLEDAFDIWGQGTMVTVSS
VL: DIQMTQSPSSLSASVGDRVTITCRASQTIWSYLNWYQQRPGKAPNLLIYAASSLQSGVPSRFSGRGSGTDFTLTISSLQAEDFATYYCQQSYSIPQTFGQGTKLEIK
notes: Known fully human anti-CD22 antibody used as IgG; also called IgG M971
On to B5, for which, in experiment [10], the “T½ (Hour) of internalization, CD22/HEK293 cells, pHrodo secondary” value turned out to be 6.07 Hour. A half-maximal effect in [12] (EC50) was put at 0.059 nM.

B6: EP160-F04 scFv (scFv)
scFv: EVQLVQSGAEVKKPGASVKVSCKASGYTFTSYGISWVRQAPGQGLEWMGWISAYNGNTNYAQKLQGRVTMTTDTSTSTAYMELRSLKSDDTAVYYCAISIGAFDIWGQGTMVTVSSGGGGSGGGGSGGGGSEIVMTQSPATLSVSPGEEVTLSCRASQSVSSNLAWYQQRPGQAPRLLIYGASIKATDVPDRFSGGGSGTDFTLSISNLQSEDFAVYYCQQYHTWPPVTFGGGTKVEIK
notes: as for B2
B6 came in with an EC50 in [6] of 2.79 nM. In experiment [8], binding was put at a Kd of 5.89 nM, the off-rate constant (koff) stood at 0.000283 s⁻¹ and the kon amounted to 40500 M⁻¹ s⁻¹.

B7: EP97-A10 scFv (scFv)
scFv: QVQLVQSGAEVKRPGASVKVSCKASGYTFTSYGISWVRQAPGQGLEWMGWISAYNGNTNYAQKLQGRVTMTTDTSTSTAYMELRSLRSDDTAVYYCARDPGIAVAGTVDYWGQGTLVTVSSGGGGSGGGGSGGGGSEIVMTQSPATLSVSPGEGVTLSCRASQSVSSNLAWYQQRPGQAPRLLIYGASIKATDVPDRFSGGGSGTDFTLSISNVQSEDFAVYYCQQYHTWTPVTFGGGTKVEIK
notes: as for B2
B7 gave a 50% effective concentration (EC50) in experiment [6] of 1 nM. For the same molecule, in [8], the dissociation constant (Kd) came out at 3.57 nM, the off-rate (koff) amounted to 0.000145 s⁻¹ and the kon amounted to 40500 M⁻¹ s⁻¹.

B8: EP97-B03 scFv (scFv)
scFv: QLVQSGAEVKKPGASVKVSCKASGYTFSSYGITWVRQAPGQGLEWMGWISAYNGNTNYAQKFQGRVTLTTDTSTSIAYMELRSLTSDDTAVYYCATGGQEDYWGQGTLVTVSSGGGGSGGGGSGGGGSEIVLTQSPATLSVSPGERATLSCRASQSVSSNLAWYQQKPGQAPRLLIYGASTRATGIPARFSGSGSGTEFTLTISSLQSEDFAVYYCQQYNSWPPLTFGGGTKVEIK
notes: as for B2
In [6], B8 registered a concentration giving a half-maximal response (EC50) of 0.7 nM. In experiment [8], this molecule returned a Kd of 0.846 nM, a koff of 0.000318 s⁻¹ and an on-rate (kon) of 376000 M⁻¹ s⁻¹.

B9: EP160-H02 (IgG) (antibody, V domains shown)
VH: QVQLVQSGAEVKKPGASVKVSCKASGYTFTSYGISWVRQAPGQGLEWMGGIIAYNGNTNYAQKLQGRVTMTTDTSTSTAYMELRSLRSDDTAVYYCARDPPEYSSSAGTDYWGQGTLVTVSS
VL: EIVMTQSPATLSVSPGEGVTLSCRASQSVSSNLAWYQQRPGQAPRLLIYGASIKATDVPDRFSGGGSGTDFTLSITNLQSEDFAVYYCQQYHTWSPVTFGGGTKVEIK
With B9, in experiment [11], the “EC50 in ADCC assay (Promega ADCC Bioreporter, CD22/HEK293 target cells)” value is roughly 73.8 nM.
